Reference: the RNAGym collection of RNA variant scans (doi:10.1073/pnas.2313332121)

B1: TPR t1 (parent)
chain: GACCAAUCUGCCCUCAGAGCUCGAGAACAUCUUCGGAUGCAGAGGAGGCAGGCUUCGGUGGCGCGAUAGCGCCAACGUCCUCAACCUCCAAUGCAUCCCACCACAUGAUGAUGCCUGAAGAGCCUUGGUUUUUUG

Variants of: B1
Assay: polymerase ribozyme fitness, log enrichment relative to wild type (log ratio); higher = more active; in vitro selection for triplet polymerase activity
Procedure, shortened: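 Input and output libraries were sequenced on Illumina after a single in vitro selection round, run in triplicate on PCR-built, transcribed mutant libraries of each subunit of a heterodimeric triplet polymerase ribozyme. Selection annealed libraries to a biotinylated primer, the partner subunit and triplets, incubated them frozen at −7 °C, then gel-excised extended constructs for streptavidin-bead capture and RT-PCR. Genotypes with ≥10 input reads and ≥1 read per output were kept. Fitness is the logarithm, taken in base 2, of genotype enrichment divided by wild-type enrichment, using inverse-variance-weighted replicate averages.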

Row | Variant | polymerase ribozyme fitness (log ratio)
1 | C8G U78C C85U G113U U132A | -2.41
2 | U9G A18C G117A | 0.733
3 | C8U G57U U112A | 1.64
4 | U9A A100U | 0.21
5 | U9C C28U G36U A121G | 0.0298
6 | U9A C13G U32A G39C A41U G60C C88U G117A | -7.75
7 | U9G C12A G57U A111U C114A U133A | -5.59
8 | U9C A27G C56A U92A | -3.57
9 | U9G A103U U126A G127C | -5.16
10 | C8U G60C G61C C72A C101U | -1.33
11 | U9A A43U C70U C82A U87C U131A | -1.6
12 | U9G C28G A111C G122A | -4.22
13 | C8U G51A C56A G120U | -3.67
14 | C8U C104G U106A C124G | -3.63
15 | U9A G71A C85A G93A C102A | -3.84
16 | U9G C11U C53U U81A | -0.54
17 | C8U G52A A74U U112C | 1.59
18 | U9A U55G C99U | -2.44
19 | C8U G93C | 0.0241
20 | C8G U14A U55G C73G C97A | -4.31
21 | U9C G39A A41U C73G G120U | -0.71

Row | Variant | polymerase ribozyme fitness (log ratio)
22 | U9C U54A C101U | 0.158
23 | C8G U96C C104U | 0.578
24 | U9A C56U | 0.248
25 | U9A C56A | 0.00188
26 | U9A A83U | 0.0435
27 | U9C U81A U116A G122U C124U | -0.783
28 | C8U C12A G42A C70U U92A | -4.6
29 | U9G G48U C49U G69U G120U | 0.977
30 | U9A A84U A121C | 2.06
31 | U9A C20G U96G C124U | -3.29
32 | C8U C85U C124G | 2.05
33 | U9G C53A A95C U112G | -0.929
34 | U9A U55G C56G | -0.896
35 | U9G G36C C56U C76U C85U A118U | -2.3
36 | C8G U55A | 0.0363
37 | U9G C22G C101A C115U | -3.13
38 | C8U C28G U109A | -4.64
39 | U9G G17A C56U A83U C89A C101A | -4.6
40 | C8U C12G | 0.586
41 | U9C C34U C56G G77A U106A G113A A121G | -3.53
42 | C8U C73A C123A | 2.02

Row | Variant | polymerase ribozyme fitness (log ratio)
43 | U9G C12G G93C | -0.487
44 | U9G C56U | -0.823
45 | U9C C12U C22G G45C C72G A100U | -4.47
46 | U9A U87A | 1.16
47 | U9C G48U G52C G117U | -2.68
48 | U9A G42A U87C C101A G120A | -1.63
49 | C8G U30C C70U G113C U133A | -5.26
50 | U9A C86G | 0.0417
51 | U9C G17U C20G G25C C115U | -6.98
52 | C8U C15U U32C G71U C99U | -4.38
53 | U9G C34U U59A A103U | -5.76
54 | C8U G52U C86A | -1.28
55 | U9G G48A U81A C89A G93U C115G C123G | -6.43
56 | U9C A26G C34A G39A C97A C115A A121G | -1.6
57 | C8U A29G A43G | -3.05
58 | U9G C22G U81C | -3.31
59 | C8U C124A | 2.27
60 | C8U C124U | 1.6
61 | U9C A50U C94U | -2.36
62 | C8G U38A A100U | -2.56
63 | C8U G19C C56A C115A | -2.03

Row | Variant | polymerase ribozyme fitness (log ratio)
64 | C8U A46U | -0.626
65 | C8U A46G | -0.00753
66 | U9A G120C | 1.21
67 | U9C C49A C123U | 1.45
68 | U9A G10C C13U C40A C80A G122A | -3.43
69 | U9A C13G A26C G63C G110A | -5.86
70 | U9A G63C A84U G120A | 0.752
71 | U9C G47U C49U U129A | -3.07
72 | U9G G39A | 0.968
73 | C8U G120U | 1.14
74 | C8U C64A U78C | -6.51
75 | U9G C97U A100C A108G | -2.87
76 | C8U U9A C11A C13A G44U C73A A100U C102U | -4.18
77 | C8U A16U A37U G52C C56G C79A G110U U126A | -4.2
78 | U9G G10U C12G A111G | 0.61
79 | C8U G42U A50U | -3.49
80 | U9A G39C | -0.517
81 | U9C G52A C89A G117A | -1.63
82 | U9C A37C C94U G110A | -1.17
83 | C8U U32G C101A C115G | -5.52
